Values of other authors as cited in article PMC7911819.

Target: calmodulin (Homo sapiens) (UniProt P0DP23)

## CyaA 1-370 (from UniProt P0DKX7)
  Kd: < 0.1 nM
